Laboratory results taken from US20250011448A1 (STAIDSON BIOPHARMA, published 2025).

T1: human TNFR2 extracellular domain fused to human IgG1 Fc (human, UniProt P20333 23-257)
T1 construct: also called TNFR2-huFc; huTNFR2; not shown: C-terminal human IgG1 Fc
T1 sequence: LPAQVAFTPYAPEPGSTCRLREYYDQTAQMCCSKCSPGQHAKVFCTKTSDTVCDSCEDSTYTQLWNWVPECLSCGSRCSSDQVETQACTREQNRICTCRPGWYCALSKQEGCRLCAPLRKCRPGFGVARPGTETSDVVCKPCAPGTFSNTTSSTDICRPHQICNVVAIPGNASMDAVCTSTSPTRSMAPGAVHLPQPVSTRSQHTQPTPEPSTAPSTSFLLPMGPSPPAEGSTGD

T2: human TNFR2 expressed on cells (Expi293 cells stably expressing huTNFR2) (human, UniProt P20333 23-461)
T2 construct: whole, on cells; Also used here as the target of the Treg assay (native TNFR2 on human primary Treg cells); also called huTNFR2 expressed cells; Expi293-TNFR2 cells
T2 sequence (looked up): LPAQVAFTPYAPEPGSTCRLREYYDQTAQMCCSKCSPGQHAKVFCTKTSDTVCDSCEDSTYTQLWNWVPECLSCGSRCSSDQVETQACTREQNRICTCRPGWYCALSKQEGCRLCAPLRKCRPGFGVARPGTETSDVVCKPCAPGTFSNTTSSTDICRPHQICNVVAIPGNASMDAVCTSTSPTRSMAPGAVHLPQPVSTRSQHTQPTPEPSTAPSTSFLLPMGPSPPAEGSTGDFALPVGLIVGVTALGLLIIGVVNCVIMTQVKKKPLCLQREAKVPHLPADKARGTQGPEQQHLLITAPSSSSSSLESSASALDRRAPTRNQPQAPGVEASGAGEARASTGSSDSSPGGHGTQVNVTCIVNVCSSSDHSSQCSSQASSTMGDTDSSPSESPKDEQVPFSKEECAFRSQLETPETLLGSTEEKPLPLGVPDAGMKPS

T3: cynomolgus monkey TNFR2 extracellular domain with C-terminal 10×His tag (cynomolgus monkey, UniProt P20333 23-257 (human entry))
T3 construct: also called cynoTNFR2-His; His-tag-cynoTNFR2
T3 chain: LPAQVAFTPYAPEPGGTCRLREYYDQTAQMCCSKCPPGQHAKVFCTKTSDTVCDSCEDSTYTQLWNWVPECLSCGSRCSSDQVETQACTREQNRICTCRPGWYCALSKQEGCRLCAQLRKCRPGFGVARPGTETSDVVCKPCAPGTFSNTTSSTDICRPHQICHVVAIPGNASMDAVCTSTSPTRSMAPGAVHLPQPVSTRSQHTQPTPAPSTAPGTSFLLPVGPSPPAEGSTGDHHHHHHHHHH

T4: human TNFR2 extracellular domain with C-terminal 10×His tag (human, UniProt P20333 23-257)
T4 construct: also called huTNFR2-His; His-tag-huTNFR2
T4 sequence: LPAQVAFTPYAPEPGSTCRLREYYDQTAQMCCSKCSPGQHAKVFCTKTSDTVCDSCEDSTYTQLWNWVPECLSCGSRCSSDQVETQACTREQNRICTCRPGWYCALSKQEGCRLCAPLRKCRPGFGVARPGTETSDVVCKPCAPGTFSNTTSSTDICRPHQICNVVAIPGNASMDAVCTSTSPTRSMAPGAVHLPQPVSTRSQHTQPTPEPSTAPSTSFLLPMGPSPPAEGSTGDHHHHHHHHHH


How the values were obtained:
[1] = target: T1, human TNFR2 extracellular domain fused …; assay: blocking ELISA: antibody pre-mixed with huTNFR2, binding of huTNFR2 to coated human TNFα read out
Protocol: 96-well round bottom ELISA plates were coated overnight at 4° C. with 50 μL/well of 0.5 μg/mL human TNFα recombinant protein (R&D system, Cat #210-TA-100) in coating buffer. After removing the coating solution, blocking buffer was added into the plates followed by incubation at room temperature for 1 hour in order to block unspecific binding. During the blocking period, hybridoma antibodies samples were mixed with 0.5 μg/mL TNFR2-huFc at a 1:1 volume ratio and incubated at room temperature for another 1.5 hours. Then 50 μL/well of antigen-antibody mix solution was transferred into TNFα coated wells and incubated at room temperature for 1.5 hours. Plates were then washed 5 times with wash buffer. Then, 50 μL/well of goats anti-human IgG Fc-AP (Southern Biotech, cat #2014-04) at 1:2000 dilution in assay buffer was added, incubated at room temperature for 1 hour, washed 4 times with wash buffer and developed for 30 minutes with 50 μL/well of pNPP substrate. Plates were analyzed with a Synergy HT (Bio-TEK) at 405 nm. Parental hybridomas with the desired human and cynoTNFR2 binding as well as the ability to block human TNFR2 and human TNFα binding were prioritized for subcloning and further characterization. Subcloning was carried out with limited dilution and visual inspection was performed to ensure clonality. Hybridoma subclones were screened with the same binding and blocking assays and selected positive hits were cryopreserved.
TNFR2 blocking by purified recombinant chimeric antibodies: Human TNFR2 blocking ELISA was performed on purified recombinant chimeric antibodies following the same protocol as described above, except that 50 μL/well of serial dilution of purified antibodies (starting at 10 μg/mL, 1:3 dilution) in assay buffer was added into the reaction. The blocking IC₅₀ value represents the antibody concentration that inhibited 50% of huTNFR2 or cynoTNFR2 binding to coated human TNFα or cynomolgus monkey TNFα.

[2] = target: T2, human TNFR2 expressed on cells (Expi293 …); assay: flow cytometry: inhibition of binding of 10 nM Alexa Fluor 647 human TNFα to Expi293 cells expressing huTNFR2
Protocol: Expi293 cells stably expressing huTNFR2 were incubated with anti-TNFR2 antibodies for 30 minutes at 4° C. […] Cells were washed and acquired by flow cytometry with Attune. Data were analyzed with FlowJo software. TNFα binding is represented as MFI.
As shown in Table 10 and FIG. 4B, the anti-TNFR2 chimeric antibodies, 51B5, 85G8.4, 29G3, 11C1, and 15H10 inhibited soluble TNFα binding to TNFR2-expressing Expi293 cells dose-dependently and potently.

[3] = target: T3, cynomolgus monkey TNFR2 extracellular …; assay: BLI (Octet RED96), antibody captured on AHC biosensor, His-tagged TNFR2 in solution, 1:1 model
Protocol: (§1) The following kinetic assay was performed using anti-human IgG Fc capture (AHC) biosensors (ForteBio) in kinetics buffer (PBS, 0.1% Tween-20 and 1% bovine serum albumin): (a) antibody (2 μg/mL) for 300 sec, (b) baseline for 120 sec, (c) association with His-tag-huTNFR2 (2.5, 0.5 and 0 μg/mL) and His-tag-cynoTNFR2 (2.5, 0.5 and 0 μg/mL) for 420 sec and (d) dissociation for 1200 sec. Data fitting and analysis was performed with Octet data analysis software 8.0 (ForteBio) using a 1:1 binding model after Savitzky-Golay filtering.

[4] = target: T4, human TNFR2 extracellular domain with …; assay: as above
Protocol: as §1

IC50 [1] [nM]	IC50 [2] [nM]	Kd [3] [nM]	koff [3] [s⁻¹]	kon [3] [M⁻¹ s⁻¹]	Kd [4] [nM]	koff [4] [s⁻¹]	kon [4] [M⁻¹ s⁻¹]	Binder
0.584	3.37	1.42	0.000368	259000	0.453	2.58e-05	57100	15H10 chimeric anti-TNFR2 antibody (antibody, V domains shown, Chimeric: mouse variable domains with human constant regions, made as recombinant IgG1) VH: DVQLQESGPGLVTPSQSLSLTCSVTGYSITSGYYWNWIRQFPGNKLEWMGYITYDGNNNYNPSLKSRFSITRDTSKNQFFLKLNSVTSEDTATYYCARGDYGDSAMDYWGQGTSVTVSS VL: EIVLTQSPAITAASLGQKVTITCSASSGVNYMHWYQQKSGTSPKPWIYEISKLASGVPARFSGSGSGTSYSLTISSMEAEDAAIYYCQQWNYPLITFGAGTKVELK
0.723	2.51				2.46	0.000258	105000	11C1 chimeric anti-TNFR2 antibody (antibody, V domains shown, Chimeric: mouse variable domains with human constant regions, made as recombinant IgG1) VH: DVQLRESGPGLVTPSQSLSLTCSVTGYSITSGYYWNWIRQIPGNKLEWMGYITYDGNNNYDPSLKNRISITRDTSKNQFFLTLNSVTSEDTATYYCARGDYGDSAMDYWGQGTSVTVSS VL: EIVLTQSPAITAASLGQKVTITCSASSSVSYMHWYQQKSGTSPKPWIYEISKLASGVPARFSGSGSGTSYSLIISSMEAEDAAIYYCQQWNYPLITFGAGTKLELK
0.505	0.275	1.59	0.002	1.26e+06	4.53	0.00114	251000	29G3 chimeric anti-TNFR2 antibody (antibody, V domains shown, Chimeric: mouse variable domains with human constant regions, made as recombinant IgG1) VH: EVMLVESGGASVKPGGSLKLSCAASGFTFSNFAMSWVRQTPEKRLEWVATIRSGDNYSYYSDNVKGRFTISRDNARNTLYLQMSSLRSKDTSIYYCARNWDKVFDYWGQGTTLTVSS VL: DIVLTQSPASLAVSLGQRATISCRASESVDSYGYSFMHWYQQKPGQPPKLLIYRASNLKSGIPARFSGSGSRTDFTLTINPVEADDVATYYCQQSNEDHTFGGGTKLEIK
0.583	1.57	1.3	0.000534	412000	1.95	0.000251	129000	85G8.4 chimeric anti-TNFR2 antibody (antibody, V domains shown, Chimeric: mouse variable domains with human constant regions, made as recombinant IgG1) VH: EVQLQQSGPELVKPGASVKISCKTSGYTFTDFNMDWVKQSHGKSLEWIGYINPNNGDAAYNQKFKSKATLTVDKSSNTAYMELHSLTSDDSAVYYCARWGWAFAYWGQGTLVTVSA VL: DIVMTQSHKIMSTSVGDRVSITCKASQDVKTAVAWYQQKPGQSPKLLIYATSYRYTGVPDRFTGSGSGTDFTFTISTVQAEDLAVYYCQQHYSIPYTFGGGTKLEIK
